B1: S24-1378 (antibody, V domains shown)
VH: EVQLVESGGGLVQPGGSLRLSCAASGFTVSSNYMSWVRQAPGKGLEWVSVIYSGGSTYYADSVKGRFTISRHNSKNTLYLQMNSLRAEDTAVYYCAREGYCTNGVCYRHAFDIWGQGTMVTVSS
VL: QTVVTQEPSFSVSPGGTVTLTCGLSSGSVSTSYYPSWYQQTPGQAPRTLIYSTNTRSSGVPDRFSGSILGNKAALTITGAQADDESDYYCVLYMGSGISVFGGGTKLTVL
B2: S24-278 (antibody, V domains shown)
VH: QVQLVQSGAEVKKPGASVKVSCKASGYTFTGYYMHWVRQAPGQGLEWMGWINPNSGDTNYAQKFQGWVTMTRDTSLSTAYMELSRLKSDDTAVYYCARVGVGEYSGRHYYYYGMDVWGQGTTVTVSS
VL: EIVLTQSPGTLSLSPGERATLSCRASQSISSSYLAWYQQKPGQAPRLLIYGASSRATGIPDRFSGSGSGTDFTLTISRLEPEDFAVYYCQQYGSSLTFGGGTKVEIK
B3: S564-138 (antibody, V domains shown)
VH: QVLLVQSGAEVKKPGASVKVSCKASGYTFTGYYLHWVRQAPGQGLEWMGWINPISGGTNYAQNFQDRVTMTRDTSIITAYMELSRLRSDDTAVYYCARLAYYYDSSAYRGAFDIWGQGTMVTVSS
VL: QSALTQPASVSGSPGQSITISCTGTSSDVGGYNYVSWYQQHPGKAPKLMIYEVSNRPSGVSDRFSGSKSGNTASLTISGLQAEDEADYYCSSYTSSSTYVFGTGTKVTVL
B4: S564-14 (antibody, V domains shown)
VH: EVQLVESGGGLVQPGGSLRLSCAASGLTFSSYWMSWARQAPGKGLEWVANIKKDGSEKYYVDSVKGRFTISRDNAKNSLYLQMNSLRVEDTAVYYCASEPPHYGGNSGAEYFQHWGQGTLVTVSS
VL: SYVLTQPPSVSVAPGKTARITCGGNNIGSKSVHWYQQRPGQAPVLVIYYDSDRPSGIPERFSGSNSGNTATLTISRVEAGDEADYYCQVWDSSSDHHYVFGTGTKVTVL
B5: S144-1406 (antibody, V domains shown)
VH: QVQLVQSGAEVKKPGASVKVSCKASGYTFTTYAMHWVRQAPGQRLEWMGWINAGNGNTKYSQNFQGRVTITRDTSASTAYMELSSLRSEDTAVYYCASLVGGDSSSWYDYMDVWGKGTTVTVSS
VL: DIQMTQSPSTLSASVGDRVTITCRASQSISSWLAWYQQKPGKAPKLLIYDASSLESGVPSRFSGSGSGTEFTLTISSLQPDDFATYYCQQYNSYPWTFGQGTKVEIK
B6: S564-152 (antibody, V domains shown)
VH: QVQLVESGGGVVQPGRSLRLSCAASGFTFSYYGMHWVRQAPGKGLEWVAVIWYDGSNKHYADSVKGRFTISRDNSKNTLYLQMNSLRAEDTAVYYCAKNAAPYCSGGSCYGTYFDYWGQGTLVTVSS
VL: DIQMTQSPSSLSASVGDRVTITCQASQDINNYLNWYQQKPGKAPKLLIYDASNLETGVPSRFSGSGSGTDFTFTISSLQPEDIATYYCQQYDNVPPHTFGQGTKLEIK
B7: S144-1299 (antibody, V domains shown)
VH: QVQLQESGPGLVKPSETLSLTCTVSGGSISSYYWSWIRQPPGKGLEWIGYINYRGITNYNPSLKSRVTISVDMSKNQFSLKLSSVTAADTAVYSCARLAVASRGTVDYWGQGTLVTVSS
VL: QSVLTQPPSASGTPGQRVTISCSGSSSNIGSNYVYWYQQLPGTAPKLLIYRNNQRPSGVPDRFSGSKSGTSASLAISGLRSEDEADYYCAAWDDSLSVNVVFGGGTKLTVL
B8: S564-287 (antibody, V domains shown)
VH: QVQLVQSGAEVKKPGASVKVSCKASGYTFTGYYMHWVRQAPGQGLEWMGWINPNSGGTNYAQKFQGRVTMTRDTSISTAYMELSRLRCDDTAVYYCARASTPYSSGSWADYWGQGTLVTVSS
VL: QSALTQPASVSGSPGQSITISCTGTSSDVGGYNYVSWYQQHPGKAPKLMIYDVSNRPSGVSNRFSGSKSGNTASLTISGLQAEDEADYYCSSYASSSTWVFGGGTKLTVL
B9: S144-843 (antibody, V domains shown)
VH: QVQLVESGGGVVQPGGSVRLSCAASGFDFTNNGMYWVRQAPGKGLEWVAFIRYDGNKQDYADSVKGRFTISRDNSKNTLYLQMSSLRPEDTAVYYCAKGVYTENYGWGQGTLVTVSS
VL: EIVLTQSPGTLSLSPGERATLSCRASQTVTSRYLAWYQQKPGQAPRLLIYGASTRATGIPDRFSGSGSGTDFTLTISRLEPEDFAVYYCQQYGNSPPYTFGQGTKLEIK
B10: S144-208 (antibody, V domains shown)
VH: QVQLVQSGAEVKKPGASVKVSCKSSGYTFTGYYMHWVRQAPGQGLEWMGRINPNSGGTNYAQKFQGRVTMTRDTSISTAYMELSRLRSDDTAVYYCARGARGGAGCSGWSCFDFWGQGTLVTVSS
VL: QSALTQPRSVSGSPGQSVTISCTGTSSDVGGYKYVSWYQQHPGKAPKLMIYDVSKRPSGVPDRFSGSKSGNTASLTISGLQAEDEGDYYCCSYAGTYSLVFGGGTKVTV
B11: S144-741 (antibody, V domains shown)
VH: QVHLVQSGAEVKKPGASVKVSCKASGYTFTGYYMNWVRQAPGQGLEWMGRINPNSGGTNYAQKFQGRVTMTRDTSISTAYMELSRLRSDDAAVYYCARAERYSSSWYNLYYWGQGTLVTVSS
VL: not shown
B12: S144-588 (antibody, V domains shown)
VH: QLQLQESGPGLVKPSETLSLTCTVSGGSISSSSYYWGWIRQPPGKGLEWIGSIYYSGSTYYNPSLKSRFTISVDTSKNQFSLKLSSVTAADTAVYYCAAYQRKLGYCRGNSCFSCFDPWGQGTLVTVSS
VL: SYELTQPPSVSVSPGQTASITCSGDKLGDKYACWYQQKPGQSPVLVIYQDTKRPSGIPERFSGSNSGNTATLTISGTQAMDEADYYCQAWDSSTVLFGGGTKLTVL
B13: S144-175 (antibody, V domains shown)
VH: QVQLVQSGAEVKKPGASVKVSCKASGYTFTGYYMHWVRQAPGQGLEWMGRINPNSGGTNFAQRFQGRVSMTRDTSISTAYMELSSLRSDDTAVYYCARGAKFEHLPFDIWGQGTMVTVSS
VL: QSMLTQPPSASGTPGQRVTISCSGSSSNIGSNYVYWYQQLPGTAPKLLIYRNNQRPSGVPDRFSGSKSGTSASLAISGLRSEDEADYYCAAWDDRRWVFGGGTKLTVL
B14: S144-509 (antibody, V domains shown)
VH: EVQLVQSGAEVKKPGESLKISCKGSAYTFTTYWIGWVRQMPGKGLEWMGIIYPGDSDTRYSPSFQGQVTISADKSISTAYLQWSSLKASDTAMYYCARLLLVAGPFDYWGQGTLVTVSS
VL: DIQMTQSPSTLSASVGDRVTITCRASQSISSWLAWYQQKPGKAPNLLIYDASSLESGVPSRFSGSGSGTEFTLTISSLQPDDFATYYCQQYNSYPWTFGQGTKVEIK
B15: S144-69 (antibody, V domains shown)
VH: EVQLVQSGAEVKKPGESLKISCKGSGYSFTSYWIGWVRQMPGKGLEWMGIIYPGDSDTRYSPSFQGQVTISADKSITTAYLQWSSLKASDTAMYYCARTQTTNWFDSWGQGTLVTVSS
VL: DIQMTQSPSTLSVSVGDRVTITCRASQSVSSWLAWYQQKPGKAPKLLIYDASSLESGVPSRFSGSGSGTEFTLTISSLQPDDFATYYCQQYNSFYTFGQGTKLEIK
B16: S144-466 (antibody, V domains shown)
VH: EVQLVQSGAEVKKPGESLKISCKGSGYRFTRYWIGWVRQMPGKGLEWMGIIYLGDSETRYSPSFQGQVTISADNSISTAYLQWSSLKASDTAMYYCARSSNWNYGDYWGQGTLVTVSS
VL: DIQMTQSPSTLSASVGDRVTITCRASQSITSWLAWYQQKSGKAPKLLIYDASSLESGVPSRFSGSGSGTEFTLTISSLQPDDFATYYCQQYNSYPWTFGQGTKVEIK
B17: S144-1079 (antibody, V domains shown)
VH: QVQLVQSGAEVKKPGSSVKVSCKASGDTFGSYSITWVRQAPGQGLEWMGRIIPVLGIANYAQKFQGRVTITADKSTSTAYMELSSLRSEDTAVYYCAGGGCSGGNCYSWYNWFDPWGQGSLVTVSS
VL: EIVLTQSPGTLSLSPGERATLSCRASQSVSSNYLAWYQQKPGQAPRLLIYGASSRATGIPERFSGSGSGTDFTLTISRLEPEDFAVYYCQQYGRSPYTFGQGTKLEIK
B18: S144-67 (antibody, V domains shown)
VH: EVQLVQSGAEVKKPGESLKISCKGSGYSFTTYWIAWVRQMPGKGLEWVGIIYPDDSDTRYSPSFQGQVTISADKSIGTAYLQWSSLKASDTAMYYCARGQYYDFWSGAGGVDVWGQGTTVTVSS
VL: QSVLTQPPSVSGAPGQRVTISCTGSRSNIGAGYDVQWYQQVPGTAPKLLISGNSNRPSGVPDRFSGSKSGTSASLAITGLQAEDEADYYCQSYDSSLSGLRVFGGGTKLTVL

These binders were tested against T1, SARS-CoV-2 open reading frame 8 (ORF8) protein (SARS-CoV-2, UniProt P0DTC8 16-121).
T1 construct: domain: Ig-like domains; also called ORFS [sic]
T1 sequence (P0DTC8 16-121, tags left off): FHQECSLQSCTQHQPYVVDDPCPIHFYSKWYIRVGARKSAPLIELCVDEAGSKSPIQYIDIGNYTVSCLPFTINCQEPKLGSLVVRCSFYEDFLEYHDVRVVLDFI
B1: binds.
B2: binds.

Each binder was assayed against SARS-CoV-2 spike receptor binding domain (SARS-CoV-2, UniProt P0DTC2 319-541).
B3: binds.
B4: binds.
B5: binds.
B6: binds.

Each binder was assayed against T2, SARS-CoV-2 open reading frame 8 protein (SARS-CoV-2, UniProt P0DTC8 16-121).
T2 construct: domain: Ig-like domain; also called ORF8
T2 sequence (P0DTC8 16-121, tags left off): as above
B7: binds.
B8: binds.

These binders were tested against T3, SARS-CoV-2 open reading frame 8 protein (SARS-CoV-2, UniProt P0DTC8 16-121).
T3 construct: domain: Ig-like domain; also called ORF8
T3 sequence (P0DTC8 16-121, tags left off): as above
B9: binds.
B10: binds.
B11: binds.
B12: binds.
B13: binds.

Target: SARS-CoV-2 spike receptor binding domain (SARS-CoV-2, UniProt P0DTC2 319-541)
Remark: another data set of the same source
B14: binds.
B15: binds.
B16: binds.
B17: binds.
B18: binds.

Source: patent US20240002477A1 (UNIVERSITY OF CHICAGO, published 2024)
